Like-named read-outs stand apart in the source and are kept apart here.
Tests used:
[1] = target: Human HER3 protein on the cell surface (human) (UniProt P21860); test: FACS on MDA-MB-453 cells (HER3 single-positive)
[2] = target: Human HER3 and MET proteins together on HER3/MET double-positive cells (human) (UniProt P21860); test: FACS on HCC827 Osimertinib-resistant cells (HER3/MET double-positive)
[3] = target: Human MET protein on the cell surface (human) (UniProt P08581); test: cell-based or functional assay
Chain of Human MET protein on the cell surface (human) (P08581 25-1390): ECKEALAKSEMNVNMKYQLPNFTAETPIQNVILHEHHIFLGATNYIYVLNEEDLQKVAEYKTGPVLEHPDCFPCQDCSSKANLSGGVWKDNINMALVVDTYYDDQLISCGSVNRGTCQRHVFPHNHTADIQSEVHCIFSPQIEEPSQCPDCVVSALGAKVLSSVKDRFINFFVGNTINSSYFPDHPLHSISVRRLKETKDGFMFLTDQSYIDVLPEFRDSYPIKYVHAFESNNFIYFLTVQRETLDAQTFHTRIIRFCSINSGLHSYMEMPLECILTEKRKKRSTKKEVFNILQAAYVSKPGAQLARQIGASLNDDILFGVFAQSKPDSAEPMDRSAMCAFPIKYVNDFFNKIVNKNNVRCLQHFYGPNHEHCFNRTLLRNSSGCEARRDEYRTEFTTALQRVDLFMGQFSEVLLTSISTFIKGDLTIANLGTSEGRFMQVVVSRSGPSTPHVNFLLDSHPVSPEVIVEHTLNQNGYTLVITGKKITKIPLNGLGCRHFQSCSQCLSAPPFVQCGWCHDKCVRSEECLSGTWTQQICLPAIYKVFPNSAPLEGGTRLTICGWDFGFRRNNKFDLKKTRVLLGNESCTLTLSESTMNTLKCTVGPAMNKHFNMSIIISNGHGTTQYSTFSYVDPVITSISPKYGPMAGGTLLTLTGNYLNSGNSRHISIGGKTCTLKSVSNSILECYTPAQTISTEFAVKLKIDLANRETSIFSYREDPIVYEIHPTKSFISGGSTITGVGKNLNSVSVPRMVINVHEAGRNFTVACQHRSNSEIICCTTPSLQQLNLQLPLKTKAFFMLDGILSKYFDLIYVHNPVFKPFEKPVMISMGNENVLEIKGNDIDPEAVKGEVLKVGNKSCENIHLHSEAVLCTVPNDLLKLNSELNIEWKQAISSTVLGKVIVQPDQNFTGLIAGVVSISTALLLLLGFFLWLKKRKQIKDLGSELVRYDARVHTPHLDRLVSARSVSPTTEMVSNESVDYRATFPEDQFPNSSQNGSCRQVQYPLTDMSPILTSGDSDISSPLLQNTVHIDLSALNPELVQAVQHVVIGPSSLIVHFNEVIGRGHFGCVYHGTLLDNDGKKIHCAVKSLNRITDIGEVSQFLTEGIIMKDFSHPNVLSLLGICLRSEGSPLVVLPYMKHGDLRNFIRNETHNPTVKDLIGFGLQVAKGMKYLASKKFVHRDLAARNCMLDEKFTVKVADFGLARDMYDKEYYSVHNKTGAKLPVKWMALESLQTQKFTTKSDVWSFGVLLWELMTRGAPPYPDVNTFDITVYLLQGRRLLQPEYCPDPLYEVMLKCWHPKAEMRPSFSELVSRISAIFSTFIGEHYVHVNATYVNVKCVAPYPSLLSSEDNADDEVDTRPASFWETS

[4] = target: Human HER3 protein on the cell surface (human) (UniProt P21860); test: cell-based or functional assay
[5] = target: Human HER3 and MET proteins together on HER3/MET double-positive cells (human) (UniProt P21860); test: cell-based or functional assay
[6] = target: Human MET protein on the cell surface (human) (UniProt P08581); test: FACS on NCI-H1703 cells (MET single-positive)
[7] = target: Human HER3 and MET proteins together on HER3/MET double-positive cells (human) (UniProt P21860); test: cell-based or functional assay; remark: listed apart in the source

- Maximum fluorescence value [1]: 74
- Maximum fluorescence value [2]: 74
- Maximum fluorescence value [6]: 74
Substance: IgG1 isotype control antibody
- Minimum cell viability (%) [3]: 78.6%
- Minimum cell viability (%) [4]: 92.9%
- Minimum cell viability (%) [5]: 90.9%
- Minimum cell viability (%) [7]: 102%
